Experimental findings from US20070110757A1 are described below.

To fix the notation:
B1: A17d4(1) monoclonal antibody (antibody, V domains shown)
VH: QVTLRESGPALVKPTQTLTLTCTFSGFSLSTAGMSVGWIRQPPGKALEWLADIWWDGKKSYNPSLKDRLTISKDTSKNQVVLKVTNMDPADTATYYCARDMIFNFYFDVWGQGTTVTVSS
VL: DIQMTQSPSTLSASVGDRVTITCLPSSRVGYMHWYQQKPGKAPKLLIYDTMYQSSGVPSRFSGSGSGTEFTLTISSLQPDDFATYYCFQGSGYPFTFGGGTKVEIK
B2: P12f4 Fab fragment (Fab, V domains shown)
VH: QVTLRESGPALVKPTQTLTLTCTFSGFSLSTPGMSVGWIRQPPGKALEWLADIWWDGKKHYNPSLKDRLTISKDTSKNQVVLKVTNMDPADTATYYCARDMIFNFYFDVWGQGTTVTVSS
VL: DIQMTQSPSTLSASVGDRVTITCSLSSRVGYMHWYQQKPGKAPKLLIYDTRGLPSGVPSRFSGSGSGTEFTLTISSLQPDDFATYYCFQGSGYPFTFGGGTKVEIK
B3: P11d4 Fab fragment (Fab, V domains shown)
VH: QVTLRESGPALVKPTQTLTLTCTFSGFSLSTPGMSVGWIRQPPGKALEWLADIWWDGKKHYNPSLKDRLTISKDTSKNQVVLKVTNMDPADTATYYCARDMIFNWYFDVWGQGTTVTVSS
VL: DIQMTQSPSTLSASVGDRVTITCSPSSRVGYMHWYQQKPGKAPKLLIYDTMRLASGVPSRFSGSGSGTEFTLTISSLQPDDFATYYCFQGSGYPFTFGGGTKVEIK
B4: A12a6 monoclonal antibody (antibody, V domains shown)
VH: QVTLRESGPALVKPTQTLTLTCTFSGFSLSTAGMSVGWIRQPPGKALEWLADIWWDGKKDYNPSLKDRLTISKDTSKNQVVLKVTNMDPADTATYYCARDMIFNFYFDVWGQGTTVTVSS
VL: DIQMTQSPSTLSASVGDRVTITCSASSRVGYMHWYQQKPGKAPKLLIYDTFKLSSGVPSRFSGSGSGTEFTLTISSLQPDDFATYYCFQGSGYPFTFGGGTKVEIK
B5: P12f4 monoclonal antibody (antibody, V domains shown)
VH: QVTLRESGPALVKPTQTLTLTCTFSGFSLSTPGMSVGWIRQPPGKALEWLADIWWDGKKHYNPSLKDRLTISKDTSKNQVVLKVTNMDPADTATYYCARDMIFNFYFDVWGQGTTVTVSS
VL: DIQMTQSPSTLSASVGDRVTITCSLSSRVGYMHWYQQKPGKAPKLLIYDTRGLPSGVPSRFSGSGSGTEFTLTISSLQPDDFATYYCFQGSGYPFTFGGGTKVEIK
B6: A1e9 Fab fragment (Fab, V domains shown)
VH: QVTLRESGPALVKPTQTLTLTCTFSGFSLSTAGMSVGWIRQPPGKALEWLADIWWDGKKHYNPSLKDRLTISKDTSKNQVVLKVTNMDPADTATYYCARDMIFNWYFDVWGQGTTVTVSS
VL: DIQMTQSPSTLSASVGDRVTITCSLSSRVGYMHWYQQKPGKAPKLLIYDTFKLSSGVPSRFSGSGSGTEFTLTISSLQPDDFATYYCFQGSGYPFTFGGGTKVEIK
B7: A12a6 Fab fragment (Fab, V domains shown)
VH: QVTLRESGPALVKPTQTLTLTCTFSGFSLSTAGMSVGWIRQPPGKALEWLADIWWDGKKDYNPSLKDRLTISKDTSKNQVVLKVTNMDPADTATYYCARDMIFNFYFDVWGQGTTVTVSS
VL: DIQMTQSPSTLSASVGDRVTITCSASSRVGYMHWYQQKPGKAPKLLIYDTFKLSSGVPSRFSGSGSGTEFTLTISSLQPDDFATYYCFQGSGYPFTFGGGTKVEIK
B8: P12f2 monoclonal antibody (antibody, V domains shown)
VH: QVTLRESGPALVKPTQTLTLTCTFSGFSLSTPGMSVGWIRQPPGKALEWLADIWWDDKKHYNPSLKDRLTISKDTSKNQVVLKVTNMDPADTATYYCARDMIFNFYFDVWGQGTTVTVSS
VL: DIQMTQSPSTLSASVGDRVTITCSLSSRVGYMHWYQQKPGKAPKLLIYDTFYLSSGVPSRFSGSGSGTEFTLTISSLQPDDFATYYCFQGSGYPFTFGGGTKVEIK
B9: A8c7 monoclonal antibody (antibody, V domains shown)
VH: QVTLRESGPALVKPTQTLTLTCTFSGFSLSTAGMSVGWIRQPPGKALEWLADIWWDDKKSYNPSLKDRLTISKDTSKNQVVLKVTNMDPADTATYYCARDMIFNWYFDVWGQGTTVTVSS
VL: DIQMTQSPSTLSASVGDRVTITCSPSSRVGYMHWYQQKPGKAPKLLIYDTRYQSSGVPSRFSGSGSGTEFTLTISSLQPDDFATYYCFQGSGYPFTFGGGTKVEIK
B10: A4B4 monoclonal antibody (antibody, V domains shown)
VH: QVTLRESGPALVKPTQTLTLTCTFSGFSLSTAGMSVGWIRQPPGKALEWLADIWWDDKKHYNPSLKDRLTISKDTSKNQVVLKVTNMDPADTATYYCARDMIFNFYFDVWGQGTTVTVSS
VL: DIQMTQSPSTLSASVGDRVTITCSASSRVGYMHWYQQKPGKAPKLLIYDTFFLDSGVPSRFSGSGSGTEFTLTISSLQPDDFATYYCFQGSGYPFTFGGGTKVEIK
B11: A8c7 Fab fragment (Fab, V domains shown)
VH: QVTLRESGPALVKPTQTLTLTCTFSGFSLSTAGMSVGWIRQPPGKALEWLADIWWDDKKSYNPSLKDRLTISKDTSKNQVVLKVTNMDPADTATYYCARDMIFNWYFDVWGQGTTVTVSS
VL: DIQMTQSPSTLSASVGDRVTITCSPSSRVGYMHWYQQKPGKAPKLLIYDTRYQSSGVPSRFSGSGSGTEFTLTISSLQPDDFATYYCFQGSGYPFTFGGGTKVEIK
B12: P11d4 monoclonal antibody (antibody, V domains shown)
VH: QVTLRESGPALVKPTQTLTLTCTFSGFSLSTPGMSVGWIRQPPGKALEWLADIWWDGKKHYNPSLKDRLTISKDTSKNQVVLKVTNMDPADTATYYCARDMIFNWYFDVWGQGTTVTVSS
VL: DIQMTQSPSTLSASVGDRVTITCSPSSRVGYMHWYQQKPGKAPKLLIYDTMRLASGVPSRFSGSGSGTEFTLTISSLQPDDFATYYCFQGSGYPFTFGGGTKVEIK
B13: A17d4(1) Fab fragment (Fab, V domains shown)
VH: QVTLRESGPALVKPTQTLTLTCTFSGFSLSTAGMSVGWIRQPPGKALEWLADIWWDGKKSYNPSLKDRLTISKDTSKNQVVLKVTNMDPADTATYYCARDMIFNFYFDVWGQGTTVTVSS
VL: DIQMTQSPSTLSASVGDRVTITCLPSSRVGYMHWYQQKPGKAPKLLIYDTMYQSSGVPSRFSGSGSGTEFTLTISSLQPDDFATYYCFQGSGYPFTFGGGTKVEIK
B14: P12f2 Fab fragment (Fab, V domains shown)
VH: QVTLRESGPALVKPTQTLTLTCTFSGFSLSTPGMSVGWIRQPPGKALEWLADIWWDDKKHYNPSLKDRLTISKDTSKNQVVLKVTNMDPADTATYYCARDMIFNFYFDVWGQGTTVTVSS
VL: DIQMTQSPSTLSASVGDRVTITCSLSSRVGYMHWYQQKPGKAPKLLIYDTFYLSSGVPSRFSGSGSGTEFTLTISSLQPDDFATYYCFQGSGYPFTFGGGTKVEIK
B15: A1e9 monoclonal antibody (antibody, V domains shown)
VH: QVTLRESGPALVKPTQTLTLTCTFSGFSLSTAGMSVGWIRQPPGKALEWLADIWWDGKKHYNPSLKDRLTISKDTSKNQVVLKVTNMDPADTATYYCARDMIFNWYFDVWGQGTTVTVSS
VL: DIQMTQSPSTLSASVGDRVTITCSLSSRVGYMHWYQQKPGKAPKLLIYDTFKLSSGVPSRFSGSGSGTEFTLTISSLQPDDFATYYCFQGSGYPFTFGGGTKVEIK
B16: A13c4 monoclonal antibody (antibody, V domains shown)
VH: QVTLRESGPALVKPTQTLTLTCTFSGFSLSTAGMSVGWIRQPPGKALEWLADIWWDGKKSYNPSLKDRLTISKDTSKNQVVLKVTNMDPADTATYYCARDMIFNFYFDVWGQGTTVTVSS
VL: DIQMTQSPSTLSASVGDRVTITCSLSSRVGYMHWYQQKPGKAPKLLIYDTMYQSSGVPSRFSGSGSGTEFTLTISSLQPDDFATYYCFQGSGYPFTFGGGTKVEIK

The target in this assay is RSV F protein on respiratory syncytial virus (RSV-Long strain) (respiratory syncytial virus (Long strain)) (UniProt P12568). In words: cell-based or functional assay.
Sequence of RSV F protein on respiratory syncytial virus (RSV-Long strain) (respiratory syncytial virus (Long strain)) (P12568 26-574): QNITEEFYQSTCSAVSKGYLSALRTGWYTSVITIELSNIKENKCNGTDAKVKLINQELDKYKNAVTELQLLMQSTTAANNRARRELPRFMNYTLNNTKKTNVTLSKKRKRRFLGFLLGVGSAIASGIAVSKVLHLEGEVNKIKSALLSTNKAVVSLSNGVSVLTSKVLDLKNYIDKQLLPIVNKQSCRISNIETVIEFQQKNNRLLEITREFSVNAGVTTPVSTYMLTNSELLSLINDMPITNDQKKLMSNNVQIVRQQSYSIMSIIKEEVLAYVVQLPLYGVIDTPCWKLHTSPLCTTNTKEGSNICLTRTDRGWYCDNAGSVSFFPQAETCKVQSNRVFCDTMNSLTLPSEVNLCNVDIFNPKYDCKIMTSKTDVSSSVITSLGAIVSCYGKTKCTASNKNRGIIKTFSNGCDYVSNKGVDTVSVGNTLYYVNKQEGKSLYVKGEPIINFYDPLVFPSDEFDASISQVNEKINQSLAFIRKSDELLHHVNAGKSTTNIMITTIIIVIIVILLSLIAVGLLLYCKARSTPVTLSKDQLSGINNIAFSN
B1 yielded a Fold Difference (Control IC50) of 15 fold; a Fold Difference (Curve IC50) of 13 fold; a Mean IC50 (Control), RSV microneutralization of 0.0354 µg/mL; a Mean IC50 (Curve), RSV microneutralization of 0.0342 µg/mL.
Molecule B2 came in with a Fold Difference (Control IC50) of 15 fold; a Fold Difference (Curve IC50) of 10 fold; a Mean IC50 (Control), RSV microneutralization of 0.0351 µg/mL; a Mean IC50 (Curve), RSV microneutralization of 0.0464 µg/mL.
In turn, B3 yielded a Mean IC50 (Control), RSV microneutralization above 1 µg/mL and a Mean IC50 (Curve), RSV microneutralization above 1 µg/mL.
B4 showed a Fold Difference (Control IC50) of 15 fold; a Fold Difference (Curve IC50) of 13 fold; a Mean IC50 (Control), RSV microneutralization of 0.0354 µg/mL; a Mean IC50 (Curve), RSV microneutralization of 0.0357 µg/mL.
In turn, B5 gave a Fold Difference (Control IC50) of 23 fold; a Fold Difference (Curve IC50) of 19 fold; a Mean IC50 (Control), RSV microneutralization of 0.0235 µg/mL; a Mean IC50 (Curve), RSV microneutralization of 0.0242 µg/mL.
The molecule B6 gave a Fold Difference (Control IC50) of 4 fold; a Fold Difference (Curve IC50) of 3 fold; a Mean IC50 (Control), RSV microneutralization of 0.125 µg/mL; a Mean IC50 (Curve), RSV microneutralization of 0.157 µg/mL.
Take B7: the Fold Difference (Control IC50) is 17 fold; the Fold Difference (Curve IC50) was 16 fold; the Mean IC50 (Control), RSV microneutralization is 0.031 µg/mL; the Mean IC50 (Curve), RSV microneutralization worked out at 0.0287 µg/mL.
The molecule B8 gave a Fold Difference (Control IC50) of 24 fold; a Fold Difference (Curve IC50) of 20 fold; a Mean IC50 (Control), RSV microneutralization of 0.0223 µg/mL; a Mean IC50 (Curve), RSV microneutralization of 0.0231 µg/mL.
B9 displayed a Fold Difference (Control IC50) of 14 fold; a Fold Difference (Curve IC50) of 13 fold; a Mean IC50 (Control), RSV microneutralization of 0.0383 µg/mL; a Mean IC50 (Curve), RSV microneutralization of 0.0337 µg/mL.
Molecule B10 gave a Fold Difference (Control IC50) of 35 fold; a Fold Difference (Curve IC50) of 27 fold; a Mean IC50 (Control), RSV microneutralization of 0.0154 µg/mL; a Mean IC50 (Curve), RSV microneutralization of 0.0171 µg/mL.
Consider B11, for which the Fold Difference (Control IC50) was found to be 34 fold; the Fold Difference (Curve IC50) was found to be 3 fold; the Mean IC50 (Control), RSV microneutralization is 0.157 µg/mL; the Mean IC50 (Curve), RSV microneutralization was found to be 0.177 µg/mL.
Consider B12, for which the Fold Difference (Control IC50) came to 19 fold; the Fold Difference (Curve IC50) was 21 fold; the Mean IC50 (Control), RSV microneutralization stood at 0.0289 µg/mL; the Mean IC50 (Curve), RSV microneutralization came out at 0.0217 µg/mL.
Taken in the same sequence, the figures for B13 were 31 fold, 25 fold, 0.0171 µg/mL and 0.0179 µg/mL.
For B14, the Fold Difference (Control IC50) came to 16 fold; the Fold Difference (Curve IC50) is 11 fold; the Mean IC50 (Control), RSV microneutralization was 0.0326 µg/mL; the Mean IC50 (Curve), RSV microneutralization came out at 0.0407 µg/mL.
Taken in the same sequence, the figures for B15 were 8 fold, 7 fold, 0.0645 µg/mL and 0.0625 µg/mL.
As for B16, the Fold Difference (Control IC50) was determined as 14 fold; the Fold Difference (Curve IC50) was 12 fold; the Mean IC50 (Control), RSV microneutralization turned out to be 0.0375 µg/mL; the Mean IC50 (Curve), RSV microneutralization stood at 0.0376 µg/mL.
